Earlier results as cited in PMC8865373.
Where two headings read alike, the source gives them in different places.

Assays:
CBP TAZ2 TAZ2 [1] = target: CBP TAZ2 TAZ2 (UniProt P45481)
CBP TAZ2 TAZ2 [2] = target: CBP TAZ2 TAZ2 (UniProt P45481); remark: listed apart in the source

Chain of CBP TAZ2 TAZ2 (P45481 1764-1855): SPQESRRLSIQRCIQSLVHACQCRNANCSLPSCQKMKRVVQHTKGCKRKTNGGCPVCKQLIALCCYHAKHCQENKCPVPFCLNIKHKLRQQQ
Chain of p53 AD1 AD1 (P04637 13-37): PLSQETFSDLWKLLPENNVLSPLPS
Chain of HPV E7 (P03129 whole entry): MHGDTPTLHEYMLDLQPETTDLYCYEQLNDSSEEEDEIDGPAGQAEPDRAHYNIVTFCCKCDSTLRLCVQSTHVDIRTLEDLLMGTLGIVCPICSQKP

Substance | Kd (CBP TAZ2 TAZ2 [1]) | Kd (CBP TAZ2 TAZ2 [2])
HPV E7 (from UniProt P03129) | 22 nM | 
p53 AD1 AD1 (from UniProt P04637) |  | 24 µM
